The source of these data is patent publication US9695426B2, “Biofuel production by recombinant microorganisms” (The Regents of the University of California, priority 2007, dated 2017).

The test system of data set [1] is wild-type E. coli strain (JCL16). As to the kind of experiment: isobutanol tolerance of E. coli. The source says:
Non-native hosts such as E. coli lack tolerance to high alcohols. Isobutanol is as toxic as 1-butanol to microorganisms, and the native 1-butanol producers can tolerate 1-butanol concentration up to about 2%. To show the potential for improving tolerance, in vitro evolution by the sequential transfer of cultures was used to enrich for strains with mutations which increase isobutanol tolerance. […] Other strategies such as gTME can be used for further improvement of tolerance.

Data set [2] concerns KS145. In words: 1-Propanol and 1-butanol production with the selected CimA mutants (citramalate pathway). The conditions noted are these: 30° C. for 40 h; for Production of 1-Butanol / Production of 1-Propanol: KS145 with pSA55 and pSA63 (cimA-leuABCD) or its variations; for 1-Butanol change (fold) relative to the strain containing wild-type CimA / 1-Propanol change (fold) relative to the strain containing wild-type CimA: KS145 with pSA55 and pSA63 variations. The class given is cell-based, E. coli. Here is the method: Medium and cultivation for 1-propanol and 1-butanol production. M9 medium containing 36 g/L glucose, 5 g/L yeast extract, 100 μg/ml ampicillin, 30 μg/ml kanamycin and 1000th dilution of Trace Metal Mix A5 (2.86 g H3BO3, 1.81 g MnCl2.4H2O, 0.222 g ZnSO4.7H2O, 0.39 g Na2MoO4.2H2O, 0.079 g CuSO4.5H2O, 49.4 mg Co(NO3)2.6H2O per liter water) was used for cell growth. Preculture in test tubes containing 3 ml of medium was performed at 37° C. overnight on a rotary shaker (250 rpm). Overnight culture was diluted 1:100 into 20 ml of fresh medium in a 250 ml screw cap conical flask. Cells were grown at 37° C. for 3 hr, followed by adding 0.1 mM IPTG. Cultivation was performed at 30° C. on a rotary shaker (250 rpm). Gas chromatography-flame ionization detector and high-performance liquid chromatography analyses were performed.
The citramalate pathway was then used to enhance the production of 1-propanol and 1-butanol (FIG. 13). An E. coli strain (KS145) auxotrophic for L-isoleucine, leucine, and valine (ΔilvI and ΔilvB). was transformed with pSA63 (or other plasmids containing variants of cimA) and pSA55 (PLlacO1::kivd-ADH2). The deletions of ilvI and ilvB (FIG. 13) were introduced for two reasons. First, the deletions eliminated the native substrate, 2-ketoisovalerate, for the leuABCD pathway, thus reducing the competitive substrate inhibition. Second, these deletions eliminated the production of 2-keto-3-methyl-valerate and 2-keto-4-methyl-pentanoate, which are competing substrates for Kivd. The strain expressing the wild-type cimA gene (KS145/pSA63/pSA55) produced 302 mg/liter 1-propanol and 18 mg/liter 1-butanol after 40 h (FIG. 60). KS145 with pSA55 only, where Kivd utilizes endogenous 2-keto acids, produced 40 mg/liter 1-propanol and 10 mg/liter 1-butanol under the same condition. KS145 without pSA55 and pSA63 produced neither 1-propanol nor 1-butanol (FIG. 60). Note that the yeast extract was added to the medium to boost the cell density.
1-Propanol and 1-butanol production was tested with the selected CimA variants in KS145 by replacing pSA63 with corresponding plasmids (Table 19) containing various cimA mutants. […] The production of 1-propanol and 1-butanol from the strain with CimA2 increased 3.9- and 4.3-fold, respectively, compared to the strain with the wild-type CimA.

In data set [3] the test system is KS145. The description is as above. Type of data set: cell-based, E. coli. As to conditions: ΔilvI ΔilvB strain with pSA63 and pSA55, after 64 hr.
The subject of data set [4] is JCL260. As to the kind of experiment: α-keto acid production with IPMS variants. The class given is cell-based, E. coli. Here is the method: All α-keto acid experiments were done under oxygen ‘rich’ conditions unless otherwise noted. For oxygen rich experiments, 10 mL cultures in 250 mL baffled shake flasks were inoculated 1% from 3 mL overnight cultures in LB. For oxygen poor experiments, 10 mL cultures were inoculated in 125 mL screw caps as previously described. All cultures were grown at 37° C. for 4 hours and induced with 1 mM IPTG and harvested after 18 hrs of growth at 30° C.
For other secreted metabolites, filtered supernatant was applied (20 ul) to an Agilent 1100 HPLC equipped with an auto-sampler (Agilent Technologies) and a BioRad (Biorad Laboratories, Hercules, Calif.) Aminex HPX87 column (5 mM H2SO4, 0.6 ml/min, column temperature at 65° C.). Glucose was detected with a refractive index detector, while organic acids were detected using a photodiode array detector at 210 nm. Concentrations were determined by extrapolation from standard curves.
In order to investigate this hypothesis, the production of the α-keto acid precursors, the substrates for kivd, to isobutanol and 3-methyl-1-butanol were examined. […] In hopes of increasing the KIC pool, the expression level of leuA was increased by changing the RBS from its native sequence to a more consensus sequence.
Isopropylmalate synthase (IPMS) catalyzes the condensation of KIV with acetyl-CoA. […] To relieve the feedback inhibition of the leuA gene product, two strategies were employed. A feedback insensitive mutant of IPMS (IPMS (G462D)) was employed. Second, the final step in the L-leucine synthesis pathway was inactivated by deleting ilvE (branched-chain amino acid transferase) and tyrB (tyrosine aminotransferase), two isozymes responsible for converting α-ketoisocaproate into L-leucine.

The test system of data set [5] is JCL260. The class given is cell-based, E. coli. The conditions noted are these: for 3-methyl-1-butanol final titer / isobutanol accumulation: ilvE+ tyrB+ background. Here is the method: Final production experiments were conducted as previously described, except that 20 mL modified M9 media containing 5 g/L of glucose was used in a 250 mL screw cap flask.
Metabolite Detections. The produced alcohol compounds were quantified by a gas chromatograph (GC) equipped with flame ionization detector. The system consisted of model 5890A GC (Hewlett-Packard, Avondale, Pa.) and a model 7673A automatic injector, sampler and controller (Hewlett-Packard). Supernatant of culture broth ([…]) was injected in split injection mode (1:15 split ratio) using methanol as the internal standard.
The separation of alcohol compounds was carried out by A DB-WAX capillary column (30 m, 0.32 mm-i.d., 0.50 μm-film thickness) purchased from Agilent Technologies (Santa. Clara, Calif.). GC oven temperature was initially held at 40° C. for 5 min and raised with a gradient of 15° C./min until 120° C. It was then raised with a gradient 50° C./min until 230° C. and held for 4 min. Helium was used as the carrier gas with 9.3 psi inlet pressure. The injector and detector were maintained at 225° C. 0.5 ul supernatant of culture broth was injected in split injection mode with a 1:15 split ratio. Methanol was used as the internal standard.

Take `CC(C)CO` [isobutanol]: in data set [1], the “isobutanol concentration that inhibited the strain” value is given as 1.5%. Also, the “isobutanol concentration in the presence of which mutants grow” value in data set [1] (mutants after 5 rounds of culture transfers with increasing isobutanol concentrations) is 2%.

B1: WT: wild-type citramalate synthase CimA from M. jannaschii (SEQ ID NO:89) (protein, listed as Methanocaldococcus jannaschii)
chain: MMVRIFDTTLRDGEQTPGVSLTPNDKLEIAKKLDELGVDVIEAGSAITSKGEREGIKLITKEGLNAEICSFVRALPVDIDAALECDVDSVHLVVPTSPIHMKYKLRKTEDEVLETALKAVEYAKEHGLIVELSAEDATRSDVNFLIKLFNEGEKVGADRVCVCDTVGVLTPQKSQELFKKITENVNLPVSVHCHNDFGMATANTCSAVLGGAVQCHVTVNGIGERAGNASLEEVVAALKILYGYDTKIKMEKLYEVSRIVSRLMKLPVPPNKAIVGDNAFAHEAGIHVDGLIKNTETYEPIKPEMVGNRRRIILGKHSGRKALKYKLDLMGINVSDEQLNKIYERVKEFGDLGKYISDADLLAIVREVTGKLVEEKIKLDELTVVSGNKITPIASVKLHYKGEDITLIETAYGVGPVDAAINAVRKAISGVADIKLVEYRVEAIGGGTDALIEVVVKLRKGTEIVEVRKSDADIIRASVDAVMEGINMLLN
Regarding B1, in data set [2], the “Production of 1-Butanol” value was determined as 18 mg/L, the “Production of 1-Propanol” value was determined as 302 mg/L, the “1-Butanol change (fold) relative to the strain containing wild-type CimA” value was 1 fold and the “1-Propanol change (fold) relative to the strain containing wild-type CimA” value is on record as 1 fold. Further, in data set [3], the 1-butanol produced result is recorded as “about 21 mg/L” and the 1-propanol produced entry is “about 350 mg/L”.

B2: CimA1: CimA variant with three amino acid substitutions (Ile47Val, Lys435Asn, Val441Ala) (protein, UniProt Q58787 1-491, looked up, variant I47V K435N V441A)
(R)-citramalate synthase CimA: MMVRIFDTTLRDGEQTPGVSLTPNDKLEIAKKLDELGVDVIEAGSAVTSKGEREGIKLITKEGLNAEICSFVRALPVDIDAALECDVDSVHLVVPTSPIHMKYKLRKTEDEVLETALKAVEYAKEHGLIVELSAEDATRSDVNFLIKLFNEGEKVGADRVCVCDTVGVLTPQKSQELFKKITENVNLPVSVHCHNDFGMATANTCSAVLGGAVQCHVTVNGIGERAGNASLEEVVAALKILYGYDTKIKMEKLYEVSRIVSRLMKLPVPPNKAIVGDNAFAHEAGIHVDGLIKNTETYEPIKPEMVGNRRRIILGKHSGRKALKYKLDLMGINVSDEQLNKIYERVKEFGDLGKYISDADLLAIVREVTGKLVEEKIKLDELTVVSGNKITPIASVKLHYKGEDITLIETAYGVGPVDAAINAVRKAISGVADINLVEYRAEAIGGGTDALIEVVVKLRKGTEIVEVRKSDADIIRASVDAVMEGINMLLN
Consider B2, for which, in data set [2], the “Production of 1-Butanol” value came out at 22 mg/L, the “Production of 1-Propanol” value stood at 695 mg/L, the “1-Butanol change (fold) relative to the strain containing wild-type CimA” value came out at 1.2 fold and the “1-Propanol change (fold) relative to the strain containing wild-type CimA” value is on record as 2.3 fold.

B3: IPMS (G462D): feedback insensitive mutant of isopropylmalate synthase (leuA gene product) (protein, UniProt P09151 2-523, looked up, variant G462D)
2-isopropylmalate synthase: SQQVIIFDTTLRDGEQALQASLSVKEKLQIALALERMGVDVMEVGFPVSSPGDFESVQTIARQVKNSRVCALARCVEKDIDVAAESLKVAEAFRIHTFIATSPMHIATKLRSTLDEVIERAIYMVKRARNYTDDVEFSCEDAGRTPIADLARVVEAAINAGATTINIPDTVGYTMPFEFAGIISGLYERVPNIDKAIISVHTHDDLGLAVGNSLAAVHAGARQVEGAMNGIGERAGNCSLEEVIMAIKVRKDILNVHTAINHQEIWRTSQLVSQICNMPIPANKAIVGSGAFAHSSGIHQDGVLKNRENYEIMTPESIGLNQIQLNLTSRSGRAAVKHRMDEMGYKESEYNLDNLYDAFLKLADKKGQVFDYDLEALAFIGKQQEEPEHFRLDYFSVQSGSNDIATAAVKLACGEEVKAEAANGNGPVDAVYQAINRITEYNVELVKYSLTAKGHGKDALDQVDIVANYNGRRFHGVGLATDIVESSAKAMVHVLNNIWRAAEVEKELQRKAQHNENNKETV
Regarding B3, the KIC final concentration in data set [4] was found to be 1.61 g/L. The molecule also yielded a KIV accumulation in data set [4] (JCL260 background, ilvE+ tyrB+) of 0.17 g/L. In data set [4] (ΔilvE background), this molecule showed a KIC production of 2.31 g/L. Moreover, the KIC production in data set [4] (ΔilvE ΔtyrB background) was determined as 1.95 g/L. In data set [5], the 3-methyl-1-butanol final titer turned out to be 459 mg/L and the isobutanol accumulation turned out to be 15 mg/L.

B4: WT IPMS: wild-type isopropylmalate synthase, the E. coli leuA gene product (protein, UniProt P09151 2-523, looked up)
2-isopropylmalate synthase: SQQVIIFDTTLRDGEQALQASLSVKEKLQIALALERMGVDVMEVGFPVSSPGDFESVQTIARQVKNSRVCALARCVEKDIDVAAESLKVAEAFRIHTFIATSPMHIATKLRSTLDEVIERAIYMVKRARNYTDDVEFSCEDAGRTPIADLARVVEAAINAGATTINIPDTVGYTMPFEFAGIISGLYERVPNIDKAIISVHTHDDLGLAVGNSLAAVHAGARQVEGAMNGIGERAGNCSLEEVIMAIKVRKDILNVHTAINHQEIWRTSQLVSQICNMPIPANKAIVGSGAFAHSSGIHQDGVLKNRENYEIMTPESIGLNQIQLNLTSRSGRAAVKHRMDEMGYKESEYNLDNLYDAFLKLADKKGQVFDYDLEALAFIGKQQEEPEHFRLDYFSVQSGSNDIATAAVKLACGEEVKAEAANGNGPVDAVYQAINRITEYNVELVKYSLTAKGHGKDALGQVDIVANYNGRRFHGVGLATDIVESSAKAMVHVLNNIWRAAEVEKELQRKAQHNENNKETV
In data set [4] (ΔilvE background), B4 came in with a KIC production of 0.53 g/L and a KIV final concentration of 0.40 g/L. In data set [4] (ΔilvE ΔtyrB background), this molecule returned a KIC production of 1.23 g/L and a KIV final concentration of 0.37 g/L. In data set [5], this molecule gave a 3-methyl-1-butanol final titer of 308 mg/L and an isobutanol accumulation of 169 mg/L. In data set [5] (ΔilvE ΔtyrB strain), this molecule displayed a 3-methyl-1-butanol final concentration of 553 mg/L and an isobutanol of 42 mg/L.
